Patent publication US20240173352A1 (A2 BIOTHERAPEUTICS, published 2024)

Target: HLA-A*02 (on target cells) (human)
Assay: cell-based or functional assay

EC50 right shift of the NY-ESO-1 TCR by 50 uM HA-1(H) peptide: ~30 fold
Binder: VLHDDLLEA [HA-1(H) peptide]
